Target: Asp229 (UniProt position 204, GLPADDRVGDK)
Assay: kinetics
Conditions: 25 °C, 100 mM NaCl, 10 mM HEPES
[1] = free enzyme (the authors interpret the pH dependence of kcat/KM as ionisation of the catalytic Asp in the substrate-free enzyme)

Row | Substance | pKa [1] | pKa (free enzyme (the authors state that kcat/KM reports ionisation in the substrate-free enzyme))
1 | V4 Kemp eliminase (GNCA4-12 ancestral beta-lactamase scaffold with extra C-terminal polypeptide segment) (synthetic construct (reconstructed ancestral class A beta-lactamase, GNCA node, last common ancestor of various Gram-negative bacteria); W229D;F290W;I250V;R256H;L260F;V261L;H291V;insertion of extra C-terminal polypeptide segment (sequence not stated)) | about 7 | –
2 | V4 Kemp eliminase (GNCA4-12 ancestral beta-lactamase-based de novo Kemp eliminase with an extra C-terminal polypeptide segment) (synthetic construct (reconstructed ancestral GNCA node beta-lactamase, last common ancestor of various Gram-negative bacteria); W229D;F290W;I250V;R256H;L260F;V261L;H291V;C-terminal polypeptide segment insertion) | – | 6.7
3 | V4-4 Kemp eliminase (V4 + L49I/G58Q/R230I/A257P/A262C) (synthetic construct (reconstructed ancestral class A beta-lactamase, GNCA node, last common ancestor of various Gram-negative bacteria); W229D;F290W;I250V;R256H;L260F;V261L;H291V;L49I;G58Q;R230I;A257P;A262C;insertion of extra C-terminal polypeptide segment (sequence not stated)) | about 7 | –
